Test results published in PMC3432171.

Molecular target: T1, VDRm-NT (vitamin D receptor, flexible loop deleted, no His-tag) (rat, UniProt P13053 1-423, del165-211)
T1 sequence: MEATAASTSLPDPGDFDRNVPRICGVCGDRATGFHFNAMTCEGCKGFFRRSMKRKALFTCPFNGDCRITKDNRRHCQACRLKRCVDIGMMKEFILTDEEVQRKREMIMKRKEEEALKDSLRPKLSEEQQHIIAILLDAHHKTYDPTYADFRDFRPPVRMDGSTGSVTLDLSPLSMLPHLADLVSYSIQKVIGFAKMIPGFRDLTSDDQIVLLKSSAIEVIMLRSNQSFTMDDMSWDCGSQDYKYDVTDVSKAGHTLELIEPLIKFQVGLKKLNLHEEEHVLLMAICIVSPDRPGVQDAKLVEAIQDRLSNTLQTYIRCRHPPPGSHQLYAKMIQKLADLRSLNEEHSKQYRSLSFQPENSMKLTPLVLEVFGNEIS
Test: EMSA

B1: VDRE duplex (dsDNA)
DNA 1: CACGGTTCACGAGGTTCACAC
DNA 2: GTGTGAACCTCGTGAACCGTG
  binding result: binds
